Experiments:
His-Lcn2 = target: T1, His-Lcn2 (mouse, UniProt P11672 21-200); assay: filter binding; Nitrocellulose filter capture in PBS at 23-24 C (NA53 in NBB); EIS sensor in PBS with or without 10% serum; conditions: protein: recombinant; tags: His; label: 5' 32P
T1 sequence: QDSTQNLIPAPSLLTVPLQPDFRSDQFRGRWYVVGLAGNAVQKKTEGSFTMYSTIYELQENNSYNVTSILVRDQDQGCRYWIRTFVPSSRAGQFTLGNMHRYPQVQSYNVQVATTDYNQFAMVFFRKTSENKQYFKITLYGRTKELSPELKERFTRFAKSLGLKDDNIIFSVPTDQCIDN

EBOV sGP [1] = target: T2, EBOV sGP (Zaire ebolavirus (EBOV), UniProt P60170); assay: filter binding; conditions: protein: recombinant; tags: C-terminal thrombin site + 6xHis; chain copies: 2; label: 5' 32P
SUDV sGP [2] = target: T3, SUDV sGP (Sudan virus (SUDV), UniProt Q7T9E0 33-324); assay: filter binding; conditions: protein: commercial; chain copies: 2; label: 5' 32P
T3 sequence: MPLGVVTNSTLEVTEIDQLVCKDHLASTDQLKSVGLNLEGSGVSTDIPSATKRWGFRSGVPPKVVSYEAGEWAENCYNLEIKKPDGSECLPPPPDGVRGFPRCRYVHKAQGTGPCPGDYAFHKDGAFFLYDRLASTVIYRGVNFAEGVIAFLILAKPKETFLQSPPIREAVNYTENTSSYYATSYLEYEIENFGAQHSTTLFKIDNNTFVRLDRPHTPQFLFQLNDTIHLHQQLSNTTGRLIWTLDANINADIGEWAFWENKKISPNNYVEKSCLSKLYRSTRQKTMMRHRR

EBOV sGP [3] = target: T2, EBOV sGP; assay: electrochemical impedance (NAAO sensor); 10% human serum; conditions: protein: recombinant; tags: C-terminal thrombin site + 6xHis; chain copies: 2
SUDV sGP [4] = target: T3, SUDV sGP; assay: electrochemical impedance (NAAO sensor); PBS; same affinity as EBOV sGP; conditions: protein: commercial; chain copies: 2
NGAL = NGAL (human, UniProt P80188 21-198); assay: filter binding; with or without 10 mM DTT, no effect; NBB buffer; conditions: protein: recombinant; label: 32P

B1: 6011 (ssDNA)
DNA: GCCTGTTGTGAGCCTCCTGTCGAACAACCACTCATATCTACTACATGACTTGCTCCATTCTGTTCTTTCTCTACGCATTGAGCGTTTATTCTTGTCTCCC
binding result (His-Lcn2): no binding | Kd (EBOV sGP [1]): 8.5 ± 3.2 nM | Kd (SUDV sGP [2]): 165 ± 44 nM

B2: 5'thio-6011 (ssDNA)
DNA: GCCTGTTGTGAGCCTCCTGTCGAACAACCACTCATATCTACTACATGACTTGCTCCATTCTGTTCTTTCTCTACGCATTGAGCGTTTATTCTTGTCTCCC
modifications: 5' thiol
Kd (EBOV sGP [3]): 2.2 ± 0.75 nM | binding result (SUDV sGP [4]): binds

B3: 6012 (ssDNA)
DNA: GCCTGTTGTGAGCCTCCTGTCGAACGTATTTCTTGCTTCCTTCCTTGCCGCGCACATTGCAGTATAAGTACCTGTCGTTGAGCGTTTATTCTTGTCTCCC
Kd (EBOV sGP [1]): 27 ± 12 nM | Kd (SUDV sGP [2]): 151 ± 44 nM

B4: 70SGP2A (ssDNA)
DNA: GCCTGTTGTGAGCCTCCTGTCGAACAACCACTCATATCTACTACATGACTTGCTCCATTCTGTTCTTTCT
Kd (EBOV sGP [1]): 27 ± 15 nM

B5: 6020 (ssDNA)
DNA: GCCTGTTGTGAGCCTCCTGTCGAACATACCGTTCCACCCACATTTCAACCTTCATCCATCCTATTATTAGCCCACTCTTGAGCGTTTATTCTTGTCTCCC
binding result (EBOV sGP [1]): no binding

B6: NA53 (ssDNA)
DNA: AGCAGCACAGAGGTCAGATGCCGTGCGGATGTACAGGGACTTGGATAGTTTCTGACCTATGCGTGCTACCGTGAA
binding result (NGAL): binds

B7: 6022 (ssDNA)
DNA: GCCTGTTGTGAGCCTCCTGTCGAACCCTATCTTGTTCATGCTATTCTCAATATTTTCGGTTCACTTACCGTCTGCCTTTGAGCGTTTATTCTTGTCTCCC
Kd (EBOV sGP [1]): ~23 nM
